The values that follow come from patent publication US20070054848.

The target in the data set is recombinant full-length p21 (1-164 in SEQ ID NO: 23).
Sequence of recombinant full-length p21 (1-164 in SEQ ID NO: 23) (chain, as listed by the source): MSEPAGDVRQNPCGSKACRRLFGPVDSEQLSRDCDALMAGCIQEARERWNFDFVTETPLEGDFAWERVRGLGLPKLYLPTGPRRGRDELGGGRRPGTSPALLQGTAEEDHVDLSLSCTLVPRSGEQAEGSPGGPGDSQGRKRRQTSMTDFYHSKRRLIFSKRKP

B1: Rho kinase fragment (aa 1-543, Upstate Biotechnology) (protein)
chain: MSRPPPTGKMPGAPETAPGDGAGASRQRKLEALIRDPRSPINVESLLDGLNSLVLDLDFPALRKNKNIDNFLNRYEKIVKKIKGLQMKAEDYDVVKVIGRGAFGEVQLVRHKASQKVYAMKLLSKFEMIKRSDSAFFWEERDIMAFANSPWVVQLFYAFQDDRYLYMVMEYMPGGDLVNLMSNYDVPEKWAKFYTAEVVLALDAIHSMGLIHRDVKPDNMLLDKHGHLKLADFGTCMKMDETGMVHCDTAVGTPDYISPEVLKSQGGDGFYGRECDWWSVGVFLYEMLVGDTPFYADSLVGTYSKIMDHKNSLCFPEDAEISKHAKNLICAFLTDREVRLGRNGVEEIRQHPFFKNDQWHWDNIRETAAPVVPELSSDIDSSNFDDIEDDKGDVETFPIPKAFVGNQLPFIGFTYYRENLLLSDSPSCRENDSIQSRKNEESQEIQKKLYTLEEHLSNEMQAKEELEQKCKSVNTRLEKTAKELEEEITLRKSVESALRQLEREKALLQHKNAEYQRKADHEADKKRNLENDVNSLKDQLEDL
B1: the “Rho-kinase activity toward S6 kinase substrate peptide ([γ-32P] ATP, scintillation counting)” value is recorded as “the estimated IC50 value was 1.43 nM”.
